For this assay, the target named is hTEM8-AP (UniProt Q9H6X2). Kind of assay: Biacore affinity measurement, Fab.
Sequence of UniProt Q9H6X2 (Q9H6X2 33-321): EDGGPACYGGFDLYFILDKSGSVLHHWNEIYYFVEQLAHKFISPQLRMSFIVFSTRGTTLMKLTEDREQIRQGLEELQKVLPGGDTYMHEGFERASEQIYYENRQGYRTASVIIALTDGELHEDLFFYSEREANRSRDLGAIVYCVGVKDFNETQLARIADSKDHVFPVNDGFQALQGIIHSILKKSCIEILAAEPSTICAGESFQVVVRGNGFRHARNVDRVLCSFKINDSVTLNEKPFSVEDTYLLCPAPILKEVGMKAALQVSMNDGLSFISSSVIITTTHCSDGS

B1: M825 anti-TEM8 Fab (Fab, V domains shown)
VH: QVQLVQSGAEVKKPGTSVKVSCKVPGYTFSSYAISWVRQAPGQGLEWMGGIIPIFGTTNYAQKFQGRVTITGEESTSTVYMELSSLRSEDTAVYYCARDTDYMFDYWGQGTLVTVSS
VL: SSELTQDPVVSVALGETVSITCQGDNLRDFYASWYQQKPGQAPLLVMYGKNRRPSGIPDRFSGSTSGNTLSLTITGAQAEDEADYYCSSRDNSKHVVFGGGTKVTVL
A word on the Kd: it is the free concentration of one partner at which half of the binding sites on the other are occupied at equilibrium, for simple one-to-one binding. By koff is commonly meant the rate constant with which the complex falls apart. The low end stands for slow dissociation, the high end for fast dissociation. One may read the kon as the rate constant with which the complex forms. Turning to B1, the dissociation constant Kd came to 0.0591 nM, the koff amounted to 0.00018 s⁻¹ and the on-rate (kon) was 3.05e+06 M⁻¹ s⁻¹.
